Laboratory results: patent US20260167693A1 (ANGELES THERAPEUTICS, published 2026)
Residue numbers refer to the chain shown, from its start. Names and notes keep the numbering of the source.

T1: CD19-ECD-GGSG-NLuc-AcV5 (human)
T1 construct: also called CD19-GGSG-NLuc-AcV5; Flag-CD19-GGSG-NLuc-AcV5
T1 chain: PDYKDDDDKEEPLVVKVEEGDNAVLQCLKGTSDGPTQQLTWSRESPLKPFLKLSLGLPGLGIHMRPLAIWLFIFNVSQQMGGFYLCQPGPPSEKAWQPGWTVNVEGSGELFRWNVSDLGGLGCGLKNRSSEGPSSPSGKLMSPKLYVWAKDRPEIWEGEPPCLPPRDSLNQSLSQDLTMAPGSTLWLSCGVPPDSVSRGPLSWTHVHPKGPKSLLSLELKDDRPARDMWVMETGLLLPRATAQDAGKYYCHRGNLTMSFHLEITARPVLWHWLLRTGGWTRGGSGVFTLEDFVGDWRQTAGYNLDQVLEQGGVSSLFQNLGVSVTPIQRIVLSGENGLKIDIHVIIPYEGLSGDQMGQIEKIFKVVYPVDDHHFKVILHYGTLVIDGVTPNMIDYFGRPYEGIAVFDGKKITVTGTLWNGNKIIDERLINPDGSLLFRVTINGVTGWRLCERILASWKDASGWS

T2: human CD19 (human, UniProt P15391 20-556)
T2 sequence (looked up): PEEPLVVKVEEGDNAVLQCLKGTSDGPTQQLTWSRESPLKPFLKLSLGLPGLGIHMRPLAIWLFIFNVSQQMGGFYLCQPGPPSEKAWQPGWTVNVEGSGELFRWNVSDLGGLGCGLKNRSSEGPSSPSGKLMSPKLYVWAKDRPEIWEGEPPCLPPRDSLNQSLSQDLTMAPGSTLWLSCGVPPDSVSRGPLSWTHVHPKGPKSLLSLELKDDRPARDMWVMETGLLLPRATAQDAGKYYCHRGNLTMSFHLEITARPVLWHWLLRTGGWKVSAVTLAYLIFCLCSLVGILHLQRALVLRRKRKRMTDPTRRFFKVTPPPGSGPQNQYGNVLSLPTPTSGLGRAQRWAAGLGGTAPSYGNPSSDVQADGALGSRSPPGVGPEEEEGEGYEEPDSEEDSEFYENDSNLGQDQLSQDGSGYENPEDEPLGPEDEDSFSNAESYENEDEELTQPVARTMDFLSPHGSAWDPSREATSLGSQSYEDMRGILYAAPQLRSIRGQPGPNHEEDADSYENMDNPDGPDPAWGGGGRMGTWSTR

B1: CD8SP-FMC63-vL-[hTCRb-RC]-F-P2A-SP-FMC63-vH-[hTCRa-CSDVP]-F-F2A-PAC (other)
TCR beta: DIQMTQTTSSLSASLGDRVTISCRASQDISKYLNWYQQKPDGTVKLLIYHTSRLHSGVPSRFSGSGSGTDYSLTISNLEQEDIATYFCQQGNTLPYTFGGGTKLEITEDLKNVFPPEVAVFEPSRAEISHTQKATLVCLATGFYPDHVELSWWVNGKEVHSGVCTDPQPLKEQPALNDSRYCLSSRLRVSATFWQNPRNHFRCQVQFYGLSENDEWTQDRAKPVTQIVSAEAWGRADCGFTSESYQQGVLSATILYEILLGKATLYAVLVSALVLMAMVKRKDSRG
TCR alpha: EVKLQESGPGLVAPSQSLSVTCTVSGVSLPDYGVSWIRQPPRKGLEWLGVIWGSETTYYNSALKSRLTIIKDNSKSQVFLKMNSLQTDDTAIYYCAKHYYYGGSYAMDYWGQGTSVTVSSIQNPDPAVYQLRDSKSSDKSVCLFTDFDSQTNVSQSKDSDVYITDKCVLDMRSMDFKSNSAVAWSNKSDFACANAFNNSIIPEDTFFPSSDVPCDVKLVEKSFETDTNLNFQNLSVIGFRILLLKVAGFNLLMTLRLWSS
notes: Polyprotein PRT 12445; also called 121516-U07
B2: CD8SP-FMC63-vL-[hTCRb-KACIAH]-F-P2A-SP-FMC63-vH-[hTCRa-CSDVP]-F-F2A-PAC (other)
TCR beta: B1 TCR beta with R125K, S129A, F240I, E243A, Q246H
TCR alpha: B1 TCR alpha
notes: Polyprotein PRT 12468; also called 022217-E01
B3: CD8SP-FMC63-vL-GSG-hTCRb-RAC-F-P2A-SP-FMC63-vH-Myc-[hTCRa-CSDVP]-F-F2A-PAC (other)
TCR beta: DIQMTQTTSSLSASLGDRVTISCRASQDISKYLNWYQQKPDGTVKLLIYHTSRLHSGVPSRFSGSGSGTDYSLTISNLEQEDIATYFCQQGNTLPYTFGGGTKLEITGSGEDLKNVFPPEVAVFEPSRAEIAHTQKATLVCLATGFYPDHVELSWWVNGKEVHSGVCTDPQPLKEQPALNDSRYCLSSRLRVSATFWQNPRNHFRCQVQFYGLSENDEWTQDRAKPVTQIVSAEAWGRADCGFTSESYQQGVLSATILYEILLGKATLYAVLVSALVLMAMVKRKDSRG
TCR alpha: EVKLQESGPGLVAPSQSLSVTCTVSGVSLPDYGVSWIRQPPRKGLEWLGVIWGSETTYYNSALKSRLTIIKDNSKSQVFLKMNSLQTDDTAIYYCAKHYYYGGSYAMDYWGQGTSVTVSSEQKLISEEDGSGIQNPDPAVYQLRDSKSSDKSVCLFTDFDSQTNVSQSKDSDVYITDKCVLDMRSMDFKSNSAVAWSNKSDFACANAFNNSIIPEDTFFPSSDVPCDVKLVEKSFETDTNLNFQNLSVIGFRILLLKVAGFNLLMTLRLWSS
notes: Polyprotein PRT 12447; also called 121516-W05
B4: CD8SP-FMC63-vL-[hTCRa-CSDVP]-F-F2A-SP-FMC63-vH-[hTCRb-KACIAH]-F-P2A-PAC (other)
TCR alpha: DIQMTQTTSSLSASLGDRVTISCRASQDISKYLNWYQQKPDGTVKLLIYHTSRLHSGVPSRFSGSGSGTDYSLTISNLEQEDIATYFCQQGNTLPYTFGGGTKLEITIQNPDPAVYQLRDSKSSDKSVCLFTDFDSQTNVSQSKDSDVYITDKCVLDMRSMDFKSNSAVAWSNKSDFACANAFNNSIIPEDTFFPSSDVPCDVKLVEKSFETDTNLNFQNLSVIGFRILLLKVAGFNLLMTLRLWSS
TCR beta: EVKLQESGPGLVAPSQSLSVTCTVSGVSLPDYGVSWIRQPPRKGLEWLGVIWGSETTYYNSALKSRLTIIKDNSKSQVFLKMNSLQTDDTAIYYCAKHYYYGGSYAMDYWGQGTSVTVSSEDLKNVFPPEVAVFEPSKAEIAHTQKATLVCLATGFYPDHVELSWWVNGKEVHSGVCTDPQPLKEQPALNDSRYCLSSRLRVSATFWQNPRNHFRCQVQFYGLSENDEWTQDRAKPVTQIVSAEAWGRADCGITSASYHQGVLSATILYEILLGKATLYAVLVSALVLMAMVKRKDSRG
notes: Polyprotein PRT 12469; also called 022217-F01
B5: CD8SP-FMC63-vL-PG4SP-v2-[hTCRb-KACIAH]-F-P2A-SP-FMC63-vH-PG4SP-[hTCRa-CSDVP]-F-F2A-PAC (other)
TCR beta: DIQMTQTTSSLSASLGDRVTISCRASQDISKYLNWYQQKPDGTVKLLIYHTSRLHSGVPSRFSGSGSGTDYSLTISNLEQEDIATYFCQQGNTLPYTFGGGTKLEITPGGGGSPEDLKNVFPPEVAVFEPSKAEIAHTQKATLVCLATGFYPDHVELSWWVNGKEVHSGVCTDPQPLKEQPALNDSRYCLSSRLRVSATFWQNPRNHFRCQVQFYGLSENDEWTQDRAKPVTQIVSAEAWGRADCGITSASYHQGVLSATILYEILLGKATLYAVLVSALVLMAMVKRKDSRG
TCR alpha: EVKLQESGPGLVAPSQSLSVTCTVSGVSLPDYGVSWIRQPPRKGLEWLGVIWGSETTYYNSALKSRLTIIKDNSKSQVFLKMNSLQTDDTAIYYCAKHYYYGGSYAMDYWGQGTSVTVSSPGGGGSPIQNPDPAVYQLRDSKSSDKSVCLFTDFDSQTNVSQSKDSDVYITDKCVLDMRSMDFKSNSAVAWSNKSDFACANAFNNSIIPEDTFFPSSDVPCDVKLVEKSFETDTNLNFQNLSVIGFRILLLKVAGFNLLMTLRLWSS
notes: Polyprotein PRT 12433; also called 040617-A09
B6: CD8SP-FMC63-vL-E-Coil-[hTCRb-KACIAH]-F-P2A-SP-FMC63-vH-K-coil-[hTCRa-CSDVP]-F-F2A-PAC (other)
TCR beta: B5 TCR beta with P108E, G109V, G110A, G111A, G112L, S113E, P114R
TCR alpha: B5 TCR alpha with P121R, G122V, G123A, G124A, G125L, S126K, P127E
notes: Polyprotein PRT 12434; also called 040617-B09
B7: CD8SP-FMC63-vL-EAAAK-[hTCRb-KACIAH]-F-P2A-SP-FMC63-vH-EAAAK-v2-[hTCRa-CSDVP]-F-F2A-PAC (other)
TCR beta: DIQMTQTTSSLSASLGDRVTISCRASQDISKYLNWYQQKPDGTVKLLIYHTSRLHSGVPSRFSGSGSGTDYSLTISNLEQEDIATYFCQQGNTLPYTFGGGTKLEITEAAAKEDLKNVFPPEVAVFEPSKAEIAHTQKATLVCLATGFYPDHVELSWWVNGKEVHSGVCTDPQPLKEQPALNDSRYCLSSRLRVSATFWQNPRNHFRCQVQFYGLSENDEWTQDRAKPVTQIVSAEAWGRADCGITSASYHQGVLSATILYEILLGKATLYAVLVSALVLMAMVKRKDSRG
TCR alpha: EVKLQESGPGLVAPSQSLSVTCTVSGVSLPDYGVSWIRQPPRKGLEWLGVIWGSETTYYNSALKSRLTIIKDNSKSQVFLKMNSLQTDDTAIYYCAKHYYYGGSYAMDYWGQGTSVTVSSEAAAKIQNPDPAVYQLRDSKSSDKSVCLFTDFDSQTNVSQSKDSDVYITDKCVLDMRSMDFKSNSAVAWSNKSDFACANAFNNSIIPEDTFFPSSDVPCDVKLVEKSFETDTNLNFQNLSVIGFRILLLKVAGFNLLMTLRLWSS
notes: Polyprotein PRT 12435; also called 040617-C09
B8: CD8SP-CD19Bu12-vL-V5-[hTCRb-WT]-F-P2A-CD19Bu12-vH-Myc-[hTCRa-WT]-F-F2A-PAC (other)
TCR beta: EIVLTQSPATLSLSPGERATLSCSASSSVSYMHWYQQKPGQAPRLLIYDTSKLASGIPARFSGSGSGTDFTLTISSLEPEDVAVYYCFQGSVYPFTFGQGTKLEIKRGKPIPNPLLGLDSTGSGEDLKNVFPPEVAVFEPSEAEISHTQKATLVCLATGFYPDHVELSWWVNGKEVHSGVSTDPQPLKEQPALNDSRYCLSSRLRVSATFWQNPRNHFRCQVQFYGLSENDEWTQDRAKPVTQIVSAEAWGRADCGFTSESYQQGVLSATILYEILLGKATLYAVLVSALVLMAMVKRKDSRG
TCR alpha: QVQLQESGPGLVKPSQTLSLTCTVSGGSISTSGMGVGWIRQHPGKGLEWIGHIWWDDDKRYNPALKSRVTISVDTSKNQFSLKLSSVTAADTAVYYCARMELWSYYFDYWGQGTLVTVSSEQKLISEEDGSGIQNPDPAVYQLRDSKSSDKSVCLFTDFDSQTNVSQSKDSDVYITDKTVLDMRSMDFKSNSAVAWSNKSDFACANAFNNSIIPEDTFFPSPESSCDVKLVEKSFETDTNLNFQNLSVIGFRILLLKVAGFNLLMTLRLWSS
B9: CD8SP-CD19-hu-mROO5-vL-[hTCRa-CSDVP]-F-F2A-SP-CD19-hu-mROO5-vH-[hTCRb-KACIAH]-F-P2A-PAC (other)
TCR alpha: DIQMTQSPSSLSASVGDRVTITCKASDHINNWLAWYQQKPGQAPKLLIYGATTLETGVPSRFSGSGSGTDYTLTISSLQPEDFATYYCQQSWNTPWTFGQGTKLEIKRIQNPDPAVYQLRDSKSSDKSVCLFTDFDSQTNVSQSKDSDVYITDKCVLDMRSMDFKSNSAVAWSNKSDFACANAFNNSIIPEDTFFPSSDVPCDVKLVEKSFETDTNLNFQNLSVIGFRILLLKVAGFNLLMTLRLWSS
TCR beta: QVQLQQPGAELVKPGASVKMSCKASGYAFSSYWINWMKQKPGQGLEWIGQIYPGDGDTNYNGKFKGRATLTADTSSSTAYMQLSSLTSEDSAVYFCARSITTVVGCAMDYWGQGTSVTVSSEDLKNVFPPEVAVFEPSKAEIAHTQKATLVCLATGFYPDHVELSWWVNGKEVHSGVCTDPQPLKEQPALNDSRYCLSSRLRVSATFWQNPRNHFRCQVQFYGLSENDEWTQDRAKPVTQIVSAEAWGRADCGITSASYHQGVLSATILYEILLGKATLYAVLVSALVLMAMVKRKDSRG

Target: T1, CD19-ECD-GGSG-NLuc-AcV5
Assay: NLuc binding assay, SIR on Jurkat-NFAT-GFP cells

Binder	CD19-GGSG-NLuc (RLU)
B1	12600 RLU
B2	9760 RLU
B3	17200 RLU
B4	21300 RLU
B5	53700 RLU
B6	35700 RLU
B7	68500 RLU

Target: T2, human CD19
Assay: cell-based or functional assay

Binder	NFAT-GFP (%) after overnight co-culture with RAJI cells
B8	4.49%
B9	52.4%
